Measurements as given in patent US20230303681A1 (published 2023).
Where “and” joins values, the source holds several entries; their conditions need not be identical. Equal entries are not always repeated.

How the values were obtained:
[1] = target: T1, human TMEM106B (human, UniProt Q9NUM4 2-274); assay: FACS HEK+huTMEM, 1.0 ug/ml
T1 construct: Full-length, on transiently transfected HEK293 cells, or natively expressed on HeLa, U251 and A549 cells; also called huTMEM106B; huTMEM

[2] = target: T1, human TMEM106B; assay: FACS A549, 1 ug/ml
[3] = target: T2, cynomolgus (cyno) TMEM106B (cynomolgus, UniProt Q9NUM4 2-274 (human entry)); assay: FACS, HEK293 transfectants;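 note: flow cytometry binding of hybridoma supernatants to HEK293 cells transiently expressing human, cyno or mouse TMEM106B, read as anti-mouse-APC median fluorescence, live cells only, 30 min on ice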
T2 construct: on transiently transfected HEK293 cells
Description: (§1) For screening of the hybridoma cell culture supernatants, humanTMEM106B-transfected HEK293 cells were aliquoted in 96-well round bottom plates (2x10^5 cells per well) and incubated with 50 µL of hybridoma cell culture supernatant on ice for 30 minutes. […] Median fluorescence intensity (MFI) of anti-mouse-APC MFI on TMEM106B+ HEK293 cells was calculated for each clone, and those displaying a signal of at least 2-fold over background compared to a secondary-antibody only well were taken forward for further analysis and characterization.

[4] = target: T3, mouse TMEM106B (mouse, UniProt Q80X71 2-275); assay: FACS, HEK293 transfectants;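 note: flow cytometry binding of hybridoma supernatants to HEK293 cells transiently expressing human, cyno or mouse TMEM106B, read as anti-mouse-APC median fluorescence, live cells only, 30 min on ice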
T3 construct: on transiently transfected HEK293 cells, or natively expressed on mouse Neuro2a cells; also called moTMEM106B; murine TMEM106B
Description: as §1

[5] = target: T1, human TMEM106B; assay: FACS, HEK293 transfectants;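 for fold over negative controls: hybridoma supernatants incubated 30 min on ice with human TMEM106B-expressing HEK293 cells, binding read as anti-mouse-APC median fluorescence on live cells, relative to secondary-antibody-only wells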;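 for fold-change over parental HEK293: flow cytometry binding of hybridoma supernatants to HEK293 cells transiently expressing human, cyno or mouse TMEM106B, read as anti-mouse-APC median fluorescence, live cells only, 30 min on ice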
Description: as §1

[6] = target: T1, human TMEM106B; assay: FACS, HEK293 transfectants; remark: listed apart in the source;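 for fold over negative controls: hybridoma supernatants incubated 30 min on ice with human TMEM106B-expressing HEK293 cells, binding read as anti-mouse-APC median fluorescence on live cells, relative to secondary-antibody-only wells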;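 for fold-change over parental HEK293: flow cytometry binding of hybridoma supernatants to HEK293 cells transiently expressing human, cyno or mouse TMEM106B, read as anti-mouse-APC median fluorescence, live cells only, 30 min on ice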
[7] = target: T4, GST (Pierce) (UniProt P08515 1-218 = GST, limits assumed); assay: ELISA, coated GST;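 note: ELISA on plates coated with GST alone at 1-10 µg/ml, antibodies applied at 100-1000x dilution, bound antibody detected by peroxidase substrate colour after acid stop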
T4 construct: control for the GST part of the fusion protein; also called GST protein; Glutathione-S-transferase
Description: Briefly, 96-well polystyrene plates were coated with 1-10 µg/ml of recombinant GST-TMEM106B-truncated protein or GST (Pierce) in PBS either at 370 Cfor 1-4 hours or overnight at 4 °C. Coated plates were then blocked with 5% BSA for 1-hour, washed 3×150 µL in TBST (Tris-buffered saline + 0.1% Tween20), and then the antibodies were added at various dilutions (100-1000x) in PBS. After 1-hour incubation (room temperature, with shaking), the plates were washed 3x150 µL in TBST. […] After a final set of washes (3×150µL in TBST), 100 µL of peroxidase substrate was added for 1 minute; the reaction was then quenched with 2N sulfuric acid (100 µL).

[8] = target: T1, human TMEM106B; assay: FACS HEK+huTMEM, 0.1 ug/ml;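 note: flow cytometry binding of purified mouse IgG antibodies to HEK293 cells transiently expressing TMEM106B, read as median fluorescence intensity with propidium iodide positive dead cells gated out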
[9] = target: T1, human TMEM106B; assay: FACS HEK+huTMEM, 0.01 ug/ml
[10] = target: T3, mouse TMEM106B; assay: FACS Neuro2a;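 note: flow cytometry of cells stained with antibody or hybridoma supernatant (purified antibody at 10 µg/ml) for 1 h on ice, propidium iodide–positive dead cells gated out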
Description: (§2) All cells were cultured in either T75 or T150 flasks. […] The enzyme was quenched by addition of fresh media, and the cells were then distributed into 96-well plates for FACS analysis.
(§3) FACS analysis was performed as follows. Each cell type was aliquoted in 96-well round bottom plates (2x10^5 cells per well), washed once with FACS buffer (PBS + 2% FBS + 1 mM EDTA), and incubated with 50 µL of hybridoma supernatant or purified antibody (10 µg/ml in FACS buffer) on ice for 1 hour. […] Following this secondary incubation, the cells were again washed 2x with ice-cold FACS buffer and resuspended in a final volume of 50 µL of FACS buffer + 0.25 µl/well propidium iodide (Fisher Scientific # BDB556463). Analysis was performed on a FACSCanto system (BD Biosciences) or iQue (Intellicyt), with sort gates drawn to exclude dead (i.e., propidium iodide positive) cells.
(§4) Data is presented as mean fluorescence intensity (MFI).

[11] = target: T1, human TMEM106B; assay: FACS HeLa;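 note: flow cytometry of cells incubated with hybridoma supernatant or purified antibody at 10 µg/ml for 1 h on ice, propidium iodide–positive dead cells gated out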
[12] = target: T1, human TMEM106B; assay: FACS A549
Description: as §2, §3, §4

[13] = target: T1, human TMEM106B; assay: FACS A549, 10 ug/ml
Description: Purified anti-TMEM106B antibodies were evaluated for their binding affinity to various TMEM106B-expressing cell lines including HEK293 transiently transfected with human/cyno/mouse TMEM106B, as well as HeLa cells and A549 cells. Antibodies tested for this experiment were mouse IgGs purified from hybridoma supernatant. Affinity binding to cells was determined as follows. Briefly, 1x10^5 cells were aliquoted per well in 96-well round bottom plates and incubated with 50 µL of purified anti-TMEM106B antibody at various concentrations (10x dilutions starting at 10 µg/ml) in FACS buffer (PBS + 2% FBS + 1 mM EDTA). […] Sorting was performed on a iQue (Intellicyt), with sort gates drawn to exclude dead (propidium iodide +) cells. Binding data was analyzed using median fluorescent intensity (MFI) and graphed in Prism. Values presented are MFI.

[14] = target: T1, human TMEM106B; assay: FACS U251;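 note: flow cytometry of cells exposed to antibody (purified at 10 µg/mL, or hybridoma supernatant) for 1 h on ice, with propidium iodide-positive dead cells gated out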
Description: as §2, §3, §4

[15] = target: T1, human TMEM106B; assay: FACS HEK+huTMEM, 10 ug/ml;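 note: purified mouse IgG antibodies at 10 µg/ml bound to HEK293 cells transiently expressing human TMEM106B, measured by flow cytometry as median fluorescence intensity of propidium iodide negative live cells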
[16] = target: T5, GST-fusion human TMEM106B truncated (human); assay: array SPR, Ab immobilised;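 note: antibodies amine-coupled on an MX-96 chip, antigen flowed at 500 nM top concentration in 5-fold serial dilutions, GST alone run as nonspecific-binding control, duplicate measurements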
T5 construct: also called GST-TMEM106B-truncated protein; GST-TMEM106B (truncated)
Description: Binding kinetic characterization of the purified antibodies was performed by Carterra using a proprietary array SPR instrument (MX-96) as follows. Briefly, antibodies were prepared by diluting to 5 µg/ml in 10 mM Acetate, pH 4.5 (Carterra), at 150 µL/well and then made an additional dilution at 1:10 from there by titrating 11 µl into 100 µL. […] The chip was activated with 18 mM EDC (Sigma Bioxtra) and 4.5 mM S-NHS (Thermo Fisher) diluted in 100 mM MES, pH 5.5, for 7 minutes, and then antibodies were coupled for 10 minutes at 45 µL/minute. After coupling, the chip was returned to the MX-96 and quenched for 7 minutes using 1 M Ethanolamine pH 8.5 (Carterra).
Printed antibodies were profiled for their ability to bind GST-TMEM106B (truncated) protein (described above). Briefly, GST-TMEM106B (truncated) antigen was diluted to 18 µg/ml (500 nM of 36 kDa fusion protein) by mixing 2.7 µL of 2.0 mg/ml antigen into 298 µL Running buffer (HBS-EP+, Teknova with 1 mg/ml BSA, Sigma), and titrated 50 µl into 200 µl for 5-fold serial dilutions. In addition, binding to GST (Pierce) was assayed under the same conditions to determine the extent of any nonspecific binding of the anti-TMEM106B antibodies to GST portion of the TMEM106B-GST fusion protein. Duplicate measurements for each anti-TMEM106B antibody were taken to ensure reproducibility.

| Binder | MFI [1] | MFI [2] | fold-change over parental HEK293 [3] | fold-change over parental HEK293 [4] | fold-change over parental HEK293 [5] | fold over negative controls [6] | binding result [7] | MFI [8] | MFI [9] | MFI [10] | MFI [11] | MFI [12] | MFI [13] | MFI [14] | MFI [15] | Kd [16] | koff [16] | kon [16] |
| --- | --- | --- | --- | --- | --- | --- | --- | --- | --- | --- | --- | --- | --- | --- | --- | --- | --- | --- |
| anti-TMEM106B antibody TM-11 (antibody, V domains shown) VH: QVQLKQSGPGQVQPSQSLSITCTVSGFSLSDYGVHWVRQSPGKGLEWLGVIWNNGNTDYNAAFISRLSINKDNSKSQVFFKMTSLQADDTAIYYCVRSLRPLHFDYWGQGTTVTVSS VL: DIVMTQSPSSLTMSVGQKVTMHCKSSQSLLNSNNLQNYLAWYQQKPGQSPTLLVYFASIRESGVPDRFIGSGSGTDFTLTISSVQAEDLADYFCQQHYNTPFTFGSGTKLEIR | 54600 | 2870 | 23.7 fold | 18.3 fold | 9.96 fold | > 2 fold | no binding | 16200 | 4280 | 1040 | 1870 | 1340 | 5580 | 866 | 57900 | 2.1 nM | 5.2e-05 s⁻¹ and 5.7e-05 s⁻¹ | 24000 M⁻¹ s⁻¹ and 27000 M⁻¹ s⁻¹ |
| anti-TMEM106B antibody TM-24 (antibody, V domains shown, mouse IgG from hybridoma) VH: QVQLKQSGPGQVQPSQSLSITCTVSGFSLSDYGVHWVRQSPGKGLEWLGVIWNNGNTDYNAAFISRLSINKDNSKSQVFFKMTSLQADDTAIYYCVRSLRPLHFDYWGQGTTVTVSS VL: DIVMTQSPSSLTMSVGQKVTMNCKSSQSLLNSNNQQNYLAWYQQKPGQSPKLLVYFASIRESGVPDRFIGSGSGTDFTLTINSVQAEDLADYFCQQHYSTPFTFGSGTKLEIR | 64500 | 2880 |  |  |  | > 2 fold |  | 22000 | 3620 |  |  |  | 4480 |  | 66300 |  |  |  |
| anti-TMEM106B antibody TM-16 (antibody, V domains shown) VH: EVQLQQSGAELVRPGASVKLSCTTSGFNIKDYYMHWVKQRTEQGLEWIGRIDPEDGETKYAPEFQGKATITSDTSSNTAFLQLSSLTSEDTAVYYCASSQPFTYWGQGTLVTVSA VL: QIVLTQSPAIMSASPGEKLTMTCSASSSLNYMYWYQQKPGSSPRLLIYDTSNLASGVPVRFSGSGSGTSYSLTISRMEAEDGATYYCQQWTSFPPTFGAGTKLELK | 2140 | 409 | 17.6 fold | 1.42 fold | 8.3 fold | > 2 fold | no binding | 680 | 351 | 392 | 548 | 605 | 557 | 292 | 5980 |  |  |  |
| anti-TMEM106B antibody TM-20 (antibody, V domains shown) VH: EVQLQQSGAELVRPGASVKLSCTTSGFNIKDYYMHWVKQRTEQGLEWIGRIDPEDGETKYAPEFQGKATITSDTSSNTAFLQLSSLTSEDTAVYYCASSQPFTYWGQGTLVTVSA VL: QIVLTQSPAIMSASPGEKLTMTCSASSSLNYMYWYQQKPGSSPRLLIYDTSNLASGVPVRFRGSGSGTSYSLTISRMEAEDGATYYCQQWTSFPPTFGAGTKLELK |  |  |  |  |  |  | no binding |  |  |  |  |  |  |  |  |  |  |  |
| anti-TMEM106B antibody TM-17 (antibody, V domains shown) VH: QVQLQQSGAELIRPGTSVKVSCKASGYAFTDYLIEWVKQRPGQGLEWIGVINPGSGGTNYNEKFKGKAKLTADKSSSTAYMQLSSLTSEDSAVYFCVRSSYGVYVAYPMDYWGQGTSVTVSS VL: DIQMTQSPSSLSASLGERVSLTCRASQDIGSNLNWLQQEPDGTIKRLIYATSSLDSGVPKRFSGSRSGSDYSLTISSLESEDFVDYYCLQYASSPRTFGGGTKLEIK | 2620 | 379 | 14.3 fold | 6.42 fold | 12.6 fold | > 2 fold | no binding | 1910 | 1150 | 385 | 437 | 953 | 425 | 305 | 3960 | 22 nM and 28 nM | 0.00063 s⁻¹ and 0.00097 s⁻¹ | 29000 M⁻¹ s⁻¹ and 35000 M⁻¹ s⁻¹ |
| anti-TMEM106B antibody TM-21 (antibody, V domains shown) VH: EVQLVESGGGLVKPGGSLKLSCAASGFTFSNYAMSWVRETPEKRLEWVAFISDGGGYIYYADNVKDRFTISRDNAKNNLYLQMRHLKSEDTAMYYCARDGGTGFTYWGQGTLVTVSV VL: DIVMTQAAFSNPVTLGTSASISCRSSKSLLHSNGITYLFWYLQKPGQSPQLLIYQMSNLASGVPDRFSSSGSGTDFTLRISRVEAEDVGVYYCVQNLELPYTFGGGTKLEIK | 69400 | 2030 | 48.9 fold | 46.5 fold | 29.8 fold | > 2 fold | no binding | 15600 | 2350 | 706 | 1200 | 1030 | 4230 | 672 | 69400 | 2.9 nM and 4.1 nM | 5.2e-05 s⁻¹ and 7.1e-05 s⁻¹ | 18000 M⁻¹ s⁻¹ and 17000 M⁻¹ s⁻¹ |
